According to patent publication US20240035059A1 (NATIONAL UNIVERSITY OF SINGAPORE, published 2024):

Assays:
[1] = molecular target: CT7-Tlpa coil fusion protein (Tlpa coiled-coil domain - GGSGG linker - C-terminal T7 RNA polymerase fragment) (T7 phage); assay: cell-based or functional assay
[2] = molecular target: CT7 protein fragment (C-terminal T7 RNA polymerase fragment without Tlpa coiled-coil) (T7 phage, UniProt P00573 564-883); assay: cell-based or functional assay

Row | Molecule | fold-difference of pT7-GFP reporter between 30° C. and 42° C., Thermal-T7RNAP(v3) [1] [fold] | half-activation temperature Km of pT7-GFP reporter, Thermal-T7RNAP(v1) [1] [° C.] | half-activation temperature Km of pT7-GFP reporter, Thermal-T7RNAP(v2) [1] [° C.] | half-activation temperature Km of pT7-GFP reporter, Thermal-T7RNAP(v3) [1] [° C.] | maximum repression capacity Kinh of pT7-GFP reporter, Thermal-T7RNAP(v1) [1] | maximum repression capacity Kinh of pT7-GFP reporter, Thermal-T7RNAP(v2) [1] | maximum repression capacity Kinh of pT7-GFP reporter, Thermal-T7RNAP(v3) [1] | fold-difference of pT7-GFP reporter between 30° C. and 42° C., Split-T7 system (no Tlpa coil) [2] [fold]
1 | NT7-Tlpa coil fusion protein (N-terminal T7 RNA polymerase fragment - GGSGG linker - Tlpa coiled-coil domain) | 24 | 37.5 | 38.4 | 36.3 | 0.957 | 0.427 | 0.971 | 
2 | NT7 protein fragment (N-terminal T7 RNA polymerase fragment without Tlpa coiled-coil) (other) MNTINIAKNDFSDIELAAIPFNTLADHYGERLAREQLALEHESYEMGEARFRKMFERQLKAGEVADNAAAKPLITTLLPKMIARINDWFEEVKAKRGKRPTAFQFLQEIKPEAVAYITIKTTLACLTSADNTTVQAVASAIGRAIEDEARFGRIRDLEAKHFKKNVEEQLNKRVGHVYKKAFMQVVEADMLSKGLLGGEAWSSWHKEDSIHVGVRCIEMLIESTGMVSLHRQNAGVVGQDSETIELAPEYAEAIATRAGALAGISPMFQPCVVPPKPWTGITGGGYWANGRRPLALVRTHSKKALMRYEDVYMPEVYKAINIAQNTAWKINKKVLAVANVITKWKHCPVEDIPAIEREELPMKPEDIDMNPEALTAWKRAAAAVYRKDKARKSRRISLEFMLEQANKFANHKAIWFPYNMDWRGRVYAVSMFNPQGNDMTKGLLTLAKGKPIGKEGYYWLKIHGANCAGVDKVPFPERIKFIEENHENIMACAKSPLENTWWAEQDSPFCFLAFCFEYAGVQHHGLSYNCSLPLAFDGSCSGIQHFSAMLRDEVGGRAVNLLP |  |  |  |  |  |  |  | 4
